Results as given in publication PMC5635807, “Identification of Trombospondin-1 as a Novel Amelogenin Interactor by Functional Proteomics” (Frontiers in Chemistry, 2017).

Target: T1, Thrombospondin-1 (Abnova) (UniProt P07996 19-1170)
T1 construct: Thrombospondin-1 bought from Abnova; No catalogue number is printed; the product may be a partial or tagged recombinant protein; also called TSP-1; free TSP-1; source: bought: Abnova
Test: SPR; Biacore 3000; AMEL-2 immobilised on a CM5 chip by amine coupling (10,000 RU); running buffer 10 mM Na2HPO4, 150 mM NaCl, pH 7.4; analytes injected at 10 μl/min for 3 min, dissociation 600 s, no regeneration; 1:1 Langmuir model
Details: both partners purified

T1 sequence (P07996 19-1170): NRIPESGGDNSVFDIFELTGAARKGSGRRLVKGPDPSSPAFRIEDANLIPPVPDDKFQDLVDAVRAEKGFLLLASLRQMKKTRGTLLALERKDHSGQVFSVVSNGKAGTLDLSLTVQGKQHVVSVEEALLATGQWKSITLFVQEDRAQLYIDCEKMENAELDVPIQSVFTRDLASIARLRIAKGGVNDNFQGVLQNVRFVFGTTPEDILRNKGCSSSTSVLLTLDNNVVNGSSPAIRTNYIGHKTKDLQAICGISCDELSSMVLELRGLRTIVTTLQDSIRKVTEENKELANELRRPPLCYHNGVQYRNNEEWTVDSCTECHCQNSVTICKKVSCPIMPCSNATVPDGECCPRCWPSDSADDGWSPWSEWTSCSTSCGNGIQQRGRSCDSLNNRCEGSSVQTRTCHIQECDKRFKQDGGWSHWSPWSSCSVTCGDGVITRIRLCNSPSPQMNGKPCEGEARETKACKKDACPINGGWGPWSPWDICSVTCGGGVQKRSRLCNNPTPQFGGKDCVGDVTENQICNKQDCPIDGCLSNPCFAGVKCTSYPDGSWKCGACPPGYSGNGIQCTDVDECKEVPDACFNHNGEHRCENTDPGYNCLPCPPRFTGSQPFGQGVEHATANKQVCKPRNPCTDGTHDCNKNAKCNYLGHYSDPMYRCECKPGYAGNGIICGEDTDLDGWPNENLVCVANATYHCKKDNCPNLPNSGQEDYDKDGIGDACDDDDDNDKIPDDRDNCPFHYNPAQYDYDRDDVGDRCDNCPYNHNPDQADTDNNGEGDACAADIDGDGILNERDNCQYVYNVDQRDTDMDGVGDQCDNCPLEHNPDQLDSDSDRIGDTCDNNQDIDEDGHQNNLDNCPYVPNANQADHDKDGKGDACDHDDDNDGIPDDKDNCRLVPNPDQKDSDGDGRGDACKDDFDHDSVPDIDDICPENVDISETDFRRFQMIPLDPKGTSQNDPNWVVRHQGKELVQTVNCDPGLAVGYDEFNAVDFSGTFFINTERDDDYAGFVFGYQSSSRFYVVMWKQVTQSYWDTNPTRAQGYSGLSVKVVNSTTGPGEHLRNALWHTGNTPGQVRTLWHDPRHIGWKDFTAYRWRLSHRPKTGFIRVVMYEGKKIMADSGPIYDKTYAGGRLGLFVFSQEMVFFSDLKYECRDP

B1: human amelogenin isoform 2 (AMELX isoform II), recombinant (natural protein)
chain: MGTWILFACLLGAAFAMPVLTPLKWYQSIRPPYPSYGYEPMGGWLHHQIIPVLSQQHPPTHTLQPHHHIPVVPAQQPVIPQQPMMPVPGQHSMTPIQHHQPNLPPPAQQPYQPQPVQPQPHQPMQPQPPVHPMQPLPPQPPLPPMFPMQPLPPMLPDLTLEAWPSTDKTKREEVD
- Kd: 0.878 ± 0.125 µM
